The values below come from publication PMC11077971 (mBio, 2024).

In one data set the target is T1, E. coli BirA (Escherichia coli, UniProt P06709).
T1 construct: Met1-Lys321, N-terminal His6 tag (pET28a), E. coli BL21(DE3)
In words: HPLC-MS of biotinylated BCCP core. Format: biochemical. Conditions: apo-BCCP core (BC1) as acceptor protein, 10 µM biotin, 0.3 mM ATP, 5 mM MgCl2, pH 8.0, 37 °C.

Data set [1] deals with T2, ACC complex (biotinylated BC1 with CTβ-CTα) (Chloroflexus aurantiacus, UniProt A9WBQ8+A9WBQ9).
T2 construct: gene accD; His6-tagged, E. coli BL21(DE3); with Biotin carboxylase (acetyl-CoA carboxylase, biotin carboxylase; fused BC-BCCP)
Briefly: HPLC and MS detection of malonyl-CoA. Type of data set: biochemical. The settings on record: 10 mM acetyl-CoA, 40 mM bicarbonate, 1 mM ATP, 5 mM MgCl2, pH 9.0, RT.

Data set [2] deals with the molecule itself. Briefly: AUC + SEC; sedimentation velocity, 42,000 rpm, 20°C, initial A280 ~0.7, Sedfit; gel filtration on a Superdex 200 column.
Substrate in data set [3]: O=C(O)CCCC[C@@H]1SC[C@@H]2NC(=O)N[C@@H]21
In words: purified protein. Conditions: apparent Km, free biotin as carboxyl acceptor, 40 mM bicarbonate, 2 mM ATP, 8 mM MgCl2, 100 mM Hepes pH 8.0, 25 °C.

Substrate in data set [4]: O=C(O)O
In words: purified protein. Conditions: apparent Km, 40 mM biotin, 2 mM ATP, 8 mM MgCl2, 100 mM Hepes pH 8.0, 25 °C.

Data set [5] deals with the molecule itself. In words: crystal structure; hanging-drop vapor diffusion at 16°C; BC1 at 6.5 mg/mL, BC2 at 10 mg/mL in 20 mM Tris-HCl pH 8.0, 150 mM NaCl, 2 mM MgCl2; molecular replacement.

T2 sequence (A9WBQ8 entry or part of it, one chain of several): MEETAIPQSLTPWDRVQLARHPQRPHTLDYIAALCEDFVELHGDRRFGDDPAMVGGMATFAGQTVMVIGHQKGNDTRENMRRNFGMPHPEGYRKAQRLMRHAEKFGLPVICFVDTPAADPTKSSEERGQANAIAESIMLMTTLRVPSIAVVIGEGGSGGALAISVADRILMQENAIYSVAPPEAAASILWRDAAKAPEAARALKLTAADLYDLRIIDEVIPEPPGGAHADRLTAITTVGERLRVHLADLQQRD
T2 sequence (A9WBQ9 24-305, one chain of several): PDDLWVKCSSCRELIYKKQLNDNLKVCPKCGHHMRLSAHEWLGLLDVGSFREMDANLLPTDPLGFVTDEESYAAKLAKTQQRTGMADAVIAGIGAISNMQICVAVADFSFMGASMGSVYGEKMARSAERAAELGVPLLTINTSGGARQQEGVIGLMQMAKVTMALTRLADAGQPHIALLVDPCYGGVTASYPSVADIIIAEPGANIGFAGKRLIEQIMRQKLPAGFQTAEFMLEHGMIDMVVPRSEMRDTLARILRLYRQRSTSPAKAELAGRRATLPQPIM
T1 sequence (P06709 whole entry): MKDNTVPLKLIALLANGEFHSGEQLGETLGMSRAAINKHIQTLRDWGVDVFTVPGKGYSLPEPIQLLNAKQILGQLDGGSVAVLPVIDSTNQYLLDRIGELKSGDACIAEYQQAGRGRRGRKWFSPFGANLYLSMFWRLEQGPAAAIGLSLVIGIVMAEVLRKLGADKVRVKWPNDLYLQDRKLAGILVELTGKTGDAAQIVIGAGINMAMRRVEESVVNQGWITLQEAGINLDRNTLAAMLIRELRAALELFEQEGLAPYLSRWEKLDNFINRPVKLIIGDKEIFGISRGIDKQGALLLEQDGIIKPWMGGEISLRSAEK

On to `O=C(O)CCCC[C@@H]1SC[C@@H]2NC(=O)N[C@@H]21` [biotin], for which the “HPLC-MS of biotinylated BCCP core” value at E. coli BirA was “BC1-BCCP domain can be biotinylated by both E. coli and C. aurantiacus BirA”.

In the case of `CC(=O)SCCNC(=O)CCNC(=O)[C@H](O)C(C)(C)COP(=O)(O)OP(=O)(O)OC[C@H]1O[C@@H](n2cnc3c(N)ncnc32)[C@H](O)[C@@H]1OP(=O)(O)O` [acetyl-CoA], the “HPLC and MS detection of malonyl-CoA” value in data set [1] was “the reconstituted ACC complex is enzymatically active”.

B1: BC1ΔBCCP^β-hairpin (BC1 lacking Thr473-Gly486) (enzyme, Chloroflexus aurantiacus J-10-fl, UniProt A9W9X0 1-596, looked up)
chain: MFRTILVANRGEIALRVMRACRELGLRCVAVYSEADRDAPHVAYADDAFLIGPPSPAESYLNIDAIIRAAKATGAEAIHPGYGFLAENASFVRAVTAAGLIFIGPPAEAMERMGGKTAARREATAAGVPVVPGVLEPVTDAAEVRRLGKEFGYPIAIKAVGGGGGRGLRVVRSPEEVDEAFAAARREAEVAFKNGELYVEKYLDDPRHIEIQVLADRYGNAVALGERDCSVQRRHQKLIEECPSPALTPELRAEMGAAAVRLAKAVGYVSAGTLEFLFQDGRYYFLEMNTRIQVEHTVTEMVYGIDLVAAQIRIAQGEKLWFKQEDVVPRGHAIECRINAEDPLHNFRPALGTIGEYHEPVGFGVRVDSGVRAYYTVPSHYDSLLAKLITWGSDRQEAIARMRRALAEYRIEGVTTIIPFHQAALEHPVFTAGAATVNFIPRHPELFSRAAELTPPTAASAGAEPAPEPRRFGDGMNATPVASPSRSAPARRAAPKKTTLAAPVDAVISPIQGRVVAVRVAHGQQVEAGQVLFIVEAMKMENEITAPHSGTIAEVRVEVGTTVEAGAMLATYQNTANNTNGK
notes: biotin carboxylase isoform BC1, Chloroflexus aurantiacus J-10-fl, with the β-hairpin motif Thr473-Gly486 deleted; Vector pET28a-bc1Δbccp^β-hairpin; source: E. coli BL21(DE3), purified
Regarding B1, in data set [2], the “stoichiometry N” value turned out to be 2.

B2: His6-BC1ΔBCCP (Met1-Glu452) (domain or fragment, Chloroflexus aurantiacus J-10-fl, UniProt A9W9X0 1-452, looked up)
chain: MFRTILVANRGEIALRVMRACRELGLRCVAVYSEADRDAPHVAYADDAFLIGPPSPAESYLNIDAIIRAAKATGAEAIHPGYGFLAENASFVRAVTAAGLIFIGPPAEAMERMGGKTAARREATAAGVPVVPGVLEPVTDAAEVRRLGKEFGYPIAIKAVGGGGGRGLRVVRSPEEVDEAFAAARREAEVAFKNGELYVEKYLDDPRHIEIQVLADRYGNAVALGERDCSVQRRHQKLIEECPSPALTPELRAEMGAAAVRLAKAVGYVSAGTLEFLFQDGRYYFLEMNTRIQVEHTVTEMVYGIDLVAAQIRIAQGEKLWFKQEDVVPRGHAIECRINAEDPLHNFRPALGTIGEYHEPVGFGVRVDSGVRAYYTVPSHYDSLLAKLITWGSDRQEAIARMRRALAEYRIEGVTTIIPFHQAALEHPVFTAGAATVNFIPRHPELFSRAAE
notes: BC domain of biotin carboxylase isoform BC1, Chloroflexus aurantiacus J-10-fl; also called BCCP-truncated BC1 mutant; not shown: His6, N-terminal, kept
In the case of B2, in “purified protein [3]”, the Km is 17.1 ± 1.2 mM, the kcat came to 15.6 s⁻¹ and the kcat/Km turned out to be 920 M⁻¹ s⁻¹. Further, in “purified protein [4]”, the Km was 7.4 ± 0.3 mM, the turnover number (kcat) was 14.3 s⁻¹ and the kcat/Km turned out to be 1930 M⁻¹ s⁻¹. The “stoichiometry N” value in data set [2] is 2.

B3: His6-BC1ΔBCCP^Core (Met1-Lys510) (domain or fragment, Chloroflexus aurantiacus J-10-fl, UniProt A9W9X0 1-510, looked up)
chain: MFRTILVANRGEIALRVMRACRELGLRCVAVYSEADRDAPHVAYADDAFLIGPPSPAESYLNIDAIIRAAKATGAEAIHPGYGFLAENASFVRAVTAAGLIFIGPPAEAMERMGGKTAARREATAAGVPVVPGVLEPVTDAAEVRRLGKEFGYPIAIKAVGGGGGRGLRVVRSPEEVDEAFAAARREAEVAFKNGELYVEKYLDDPRHIEIQVLADRYGNAVALGERDCSVQRRHQKLIEECPSPALTPELRAEMGAAAVRLAKAVGYVSAGTLEFLFQDGRYYFLEMNTRIQVEHTVTEMVYGIDLVAAQIRIAQGEKLWFKQEDVVPRGHAIECRINAEDPLHNFRPALGTIGEYHEPVGFGVRVDSGVRAYYTVPSHYDSLLAKLITWGSDRQEAIARMRRALAEYRIEGVTTIIPFHQAALEHPVFTAGAATVNFIPRHPELFSRAAELTPPTAASAGAEPAPEPRRFTIEVNGRRFGVAVFGDGMNATPVASPSRSAPARRAAPK
notes: biotin carboxylase isoform BC1 without the BCCP core, Chloroflexus aurantiacus J-10-fl; The cloning of this construct is not described in the methods; source: E. coli BL21(DE3), purified
In the case of B3, the “stoichiometry N” value in data set [2] came out at 4.

B4: Chloroflexus aurantiacus BC2 (His6-tagged, Met1-Val455) (enzyme, Chloroflexus aurantiacus J-10-fl, UniProt A9WKH8 1-455, looked up)
chain: MIRKVLVANRGEIAVRIIRACQELGIRTVVAYSTADRDSLAVRLADEAVCIGPPPAAKSYLNAPALISAALVSGCDAIHPGYGFLSENPYFAEMCADCKLTFIGPPPEPIRLMGDKAIGRETMRKAGVPTVPGSDGEVRSLEEAIDVARQIGYPVLLKPSGGGGGRGMRVAYDEADLQRAFPTARAEAEAAFGNGALLLEKYLTRVRHVEIQVLADQYGHAIHLGERDCSAQRRHQKIVEEAPSPAVTPELRERMGADAVRGIKSIGYVNAGTLEFLLDQDGNYYFIEMNTRIQVEHPVTEQVTGIDLVRWQLLIASGERLTLRQEDIKITRHAIECRINAEDPERDFLPASGEVEFYLPPGGPGVRVDSHLYSGYTPPGTYDSLLAKIITFGDTRDEALNRMRRALNECVITGIKTTIPFQLALIDDPEFRAGRIHTGYVAELLRQWKETLNPV
notes: biotin carboxylase isoform BC2, Chloroflexus aurantiacus J-10-fl, 455 residues; Met1-Val455 is called full-length; also called His6-BC2; biotin carboxylase isoform 2; not shown: His6, N-terminal, kept
Take B4: in data set [5], the “stoichiometry N” value was 2. In the data set “purified protein [3]”, the Km is 14.8 ± 2.2 mM, the kcat was determined as 16.7 s⁻¹ and the kcat/Km worked out at 1160 M⁻¹ s⁻¹. For the same molecule, in the data set “purified protein [4]”, the Km amounted to 6.7 ± 0.9 mM, the kcat is 16.2 s⁻¹ and the kcat/Km was 2380 M⁻¹ s⁻¹.

B5: BC1 (Chloroflexus aurantiacus J-10-fl) (protein)
chain: MFRTILVANRGEIALRVMRACRELGLRCVAVYSEADRDAPHVAYADDAFLIGPPSPAESYLNIDAIIRAAKATGAEAIHPGYGFLAENASFVRAVTAAGLIFIGPPAEAMERMGGKTAARREATAAGVPVVPGVLEPVTDAAEVRRLGKEFGYPIAIKAVGGGGGRGLRVVRSPEEVDEAFAAARREAEVAFKNGELYVEKYLDDPRHIEIQVLADRYGNAVALGERDCSVQRRHQKLIEECPSPALTPELRAEMGAAAVRLAKAVGYVSAGTLEFLFQDGRYYFLEMNTRIQVEHTVTEMVYGIDLVAAQIRIAQGEKLWFKQEDVVPRGHAIECRINAEDPLHNFRPALGTIGEYHEPVGFGVRVDSGVRAYYTVPSHYDSLLAKLITWGSDRQEAIARMRRALAEYRIEGVTTIIPFHQAALEHPVFTAGAATVNFIPRHPELFSRAAELTPPTAASAGAEPAPEPRRFTIEVNGRRFGVAVFGDGMNATPVASPSRSAPARRAAPKKTTLAAPVDAVISPIQGRVVAVRVAHGQQVEAGQVLFIVEAMKMENEITAPHSGTIAEVRVEVGTTVEAGAMLATYQNTANNTNGK
B5: in “purified protein [3]”, the Km came out at 11.4 ± 0.2 mM, the kcat came out at 19.1 s⁻¹ and the kcat/Km worked out at 1670 M⁻¹ s⁻¹. In “purified protein [4]”, the Km stood at 4.5 ± 0.1 mM, the kcat was 20.7 s⁻¹ and the kcat/Km turned out to be 4560 M⁻¹ s⁻¹.

B6: Chloroflexus aurantiacus BC1 (His6-tagged, Met1-Lys596), not biotinylated in vitro (enzyme, Chloroflexus aurantiacus J-10-fl, UniProt A9W9X0 1-596, looked up)
chain: B5 chain
notes: biotin carboxylase isoform BC1 with fused BC (Met1-Glu452) and BCCP (Ala459-Lys596) domains, Chloroflexus aurantiacus J-10-fl, 596 residues; the pull-down control was; also called His6-BC1; unbiotinylated BC1; source: for the pull-down passed over streptavidin agarose to remove the biotinylated fraction; not shown: His6, N-terminal, kept
On to B6, for which the “stoichiometry N” value in data set [5] was 4.

What is called stoichiometry N is a count of units in the complex or per binding partner. Broadly, the Km is the substrate concentration at which the rate is half of its maximum. A word on the kcat: it is the number of substrate molecules converted per active site and unit of time at saturation. The term kcat/Km denotes the second-order rate constant that governs catalysis at low substrate concentration.
